# Reference: patent publication US20150147318A1 (ZOETIS SERVICES, published 2015)
# Where a chain is given by its changes, count along the chain named. In names and notes the source's numbering stands.
# T1: recombinant canine Nerve Growth Factor (Canis lupus familiaris NGF) (canine (Canis lupus familiaris), UniProt Q29074 110-229 (pig entry), limits assumed)
# T1 construct: also called canine NGF; Dog NGF
# T1 chain: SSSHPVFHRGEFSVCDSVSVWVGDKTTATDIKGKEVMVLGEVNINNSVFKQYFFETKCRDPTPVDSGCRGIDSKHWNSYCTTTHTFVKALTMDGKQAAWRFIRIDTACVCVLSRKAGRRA
# B1: LTM135 (HC G103A, LC H32N) (antibody, V domains shown)
# VH: EVQLVESGGDLARPGGSLKLSCVVSGFSLIGYDINWVRQAPGKGLQWVTMIWGDGTTDYNSALKSRFTVSRDNAMNTVYLQMNSLRVEDTAVYYCARGGYYYATSYYFDYWGQGTLVTVSS
# VL: DIVMTQTPLSLSVSPGETASISCRASQDISNNLNWFRQKPGQSPQRLIYYISRFHSGVPDRFSGSGSGTDFTLRISRVEADDTGVYYCQQSKTLPYTFGAGTKLEIK
# notes: Point mutant of canE3M65 as full IgG
# B2: LTM construct 110 (HC Y101W, G103A; LC K92D) (antibody, V domains shown)
# VH: B1 VH with Y101W
# VL: B1 VL with N32H, K92D
# notes: as for B1
# B3: SSM-34 (LC SSM135LCR53S, HC135 (G103A)) (antibody, V domains shown)
# VH: B1 VH
# VL: B1 VL with R53S
# notes: The light chain is the LTM135 template (E3M H32N) plus R53S
# B4: LTM construct 33 (HC Y100W, LC *D28S, NH31HN) (antibody, V domains shown)
# VH: B1 VH with Y100W, A103G
# VL: B1 VL with D28S, N31H
# notes: as for B1
# B5: SSM57 (CAN-SSM57-VH, CAN-SSME3M-VL) (antibody, V domains shown)
# VH: B1 VH with G31Q, Y101W
# VL: B1 VL with D28S, R53S, K92H
# notes: also called PF 06442590; PF-06442591
# B6: LTM construct 112 (HC Y101W, G103A; LC D28S, NH31HN, K92D) (antibody, V domains shown)
# VH: B1 VH with Y101W
# VL: B1 VL with D28S, N31H, K92D
# notes: as for B1
# B7: SSM66 (CAN-SSM66-VH, CAN-SSME3M-VL) (antibody, V domains shown)
# VH: B1 VH with G31E, D54T, Y101W
# VL: B1 VL with D28S, R53S, K92H
# B8: LTM construct 34 (HC Y100W, LC D28S, H32N) (antibody, V domains shown)
# VH: B1 VH with Y100W, A103G
# VL: B1 VL with D28S
# notes: Point mutant of canE3M65 as full IgG; Constant regions are not restated
# B9: LTM construct 37 (HC Y100W, LC *D28S, NH31HN, S91Y) (antibody, V domains shown)
# VH: B1 VH with Y100W, A103G
# VL: B1 VL with D28S, N31H, S91Y
# notes: as for B1
# B10: SSM58 (CAN-SSM58-VH, CAN-SSME3M-VL) (antibody, V domains shown)
# VH: B1 VH with G31E, Y101W
# VL: B1 VL with D28S, R53S, K92H
# B11: SSM-3 (LC E3M, HC SSMwtHCG31E) (antibody, V domains shown)
# VH: B1 VH with G31E, A103G
# VL: B1 VL with N32H
# B12: SSM-13 (LC SSMwtLCR53S, HC SSMwtHCG31Q) (antibody, V domains shown)
# VH: B1 VH with G31Q, A103G
# VL: B1 VL with N32H, R53S
# B13: SSM-2 (LC E3M, HC SSMwtHCG31Q) (antibody, V domains shown)
# VH: B1 VH with G31Q, A103G
# VL: B1 VL with N32H
# notes: IgG expressed in HEK293; constant regions are not restated
# B14: LTM construct 35 (HC Y100W, LC D28S, H32N, K92H) (antibody, V domains shown)
# VH: B1 VH with Y100W, A103G
# VL: B1 VL with D28S, K92H
# notes: as for B8
# Key:
# [1] = target: T1, recombinant canine Nerve Growth Factor …; assay: SPR, 1:1 binding fit, canine NGF
# [2] = target: T1, recombinant canine Nerve Growth Factor …; assay: SPR, Biacore T100, dog NGF; run 11/29; comment 'Agg?'
# [3] = target: T1, recombinant canine Nerve Growth Factor …; assay: SPR, Biacore T100, dog NGF; run 11/24; comment 'Agg?'
# [4] = target: T1, recombinant canine Nerve Growth Factor …; assay: SPR, Biacore T100, dog NGF; run 11/22
# [5] = target: T1, recombinant canine Nerve Growth Factor …; assay: cell-based or functional assay
# [6] = target: T1, recombinant canine Nerve Growth Factor …; assay: SPR trkA inhibition: mAb pre-incubated with NGF, binding of NGF to trkA measured in RU
# [7] = target: T1, recombinant canine Nerve Growth Factor …; assay: SPR, Biacore T100, dog NGF; run 11/29
binder,measurement,setting,value
B1,Kd,[1],1.69 nM
same,koff,[1],4.23e-05 s⁻¹
same,kon,[1],25100 M⁻¹ s⁻¹
same,Kd,[2],0.0061 nM
same,Kd,[3],0.138 nM
B2,Kd,[2],0.942 nM
same,Kd,[3],0.00326 nM
B3,Kd,[1],3.08 nM
same,koff,[1],0.000192 s⁻¹
same,kon,[1],62400 M⁻¹ s⁻¹
B4,binding result,[4],no binding
B5,"EC50, pERK inhibition, PC-12 (Rat Neuronal), pre-incubation 1 hour, 2/23/11 (SSM57)",[5],1.08 nM
same,"EC50, pERK inhibition, PC-12 (Rat Neuronal), pre-incubation 1 hour, 3/26/11 (SSM57)",[5],0.65 nM
same,"EC50, pERK inhibition, huTrkA (CHO), pre-incubation 1 hour, 3/26/11 (SSM57)",[5],0.85 nM
same,"EC50, pERK inhibition, huTrkA (CHO), pre-incubation 1 hour, 3/31/11 (SSM57)",[5],0.86 nM
same,"EC50, pERK inhibition, huTrkA (CHO), pre-incubation 6 hour, 3/31/11 (SSM57)",[5],0.73 nM
same,"Fold Potency Difference versus RN911, pERK inhibition, PC-12 (Rat Neuronal), pre-incubation 1 hour, 2/23/11 (SSM57)",[5],1.6 fold
same,"Fold Potency Difference versus RN911, pERK inhibition, PC-12 (Rat Neuronal), pre-incubation 1 hour, 3/26/11 (SSM57)",[5],1.4 fold
same,"Fold Potency Difference versus RN911, pERK inhibition, huTrkA (CHO), pre-incubation 1 hour, 3/26/11 (SSM57)",[5],1.8 fold
same,"Fold Potency Difference versus RN911, pERK inhibition, huTrkA (CHO), pre-incubation 1 hour, 3/31/11 (SSM57)",[5],1.4 fold
same,"Fold Potency Difference versus RN911, pERK inhibition, huTrkA (CHO), pre-incubation 6 hour, 3/31/11 (SSM57)",[5],1.3 fold
same,Ki,[6],4.2 nM
B6,Kd,[2],0.0152 nM
same,Kd,[3],0.00165 nM
B7,"EC50, pERK inhibition, PC-12 (Rat Neuronal), pre-incubation 1 hour, 2/23/11 (SSM66)",[5],1.45 nM
same,"EC50, pERK inhibition, PC-12 (Rat Neuronal), pre-incubation 1 hour, 3/26/11 (SSM66)",[5],0.71 nM
same,"EC50, pERK inhibition, huTrkA (CHO), pre-incubation 1 hour, 3/26/11 (SSM66)",[5],0.76 nM
same,"EC50, pERK inhibition, huTrkA (CHO), pre-incubation 1 hour, 3/31/11 (SSM66)",[5],0.94 nM
same,"EC50, pERK inhibition, huTrkA (CHO), pre-incubation 6 hour, 3/31/11 (SSM66)",[5],0.69 nM
same,"Fold Potency Difference versus RN911, pERK inhibition, PC-12 (Rat Neuronal), pre-incubation 1 hour, 2/23/11 (SSM66)",[5],2.2 fold
same,"Fold Potency Difference versus RN911, pERK inhibition, PC-12 (Rat Neuronal), pre-incubation 1 hour, 3/26/11 (SSM66)",[5],1.5 fold
same,"Fold Potency Difference versus RN911, pERK inhibition, huTrkA (CHO), pre-incubation 1 hour, 3/26/11 (SSM66)",[5],1.6 fold
same,"Fold Potency Difference versus RN911, pERK inhibition, huTrkA (CHO), pre-incubation 1 hour, 3/31/11 (SSM66)",[5],1.5 fold
same,"Fold Potency Difference versus RN911, pERK inhibition, huTrkA (CHO), pre-incubation 6 hour, 3/31/11 (SSM66)",[5],1.2 fold
same,Ki,[6],4.5 nM
B8,Kd,[4],0.639 nM
same,Kd,[7],0.885 nM
B9,Kd,[4],1.91 nM
B10,"EC50, pERK inhibition, PC-12 (Rat Neuronal), pre-incubation 1 hour, 2/23/11 (SSM58)",[5],1.05 nM
same,"EC50, pERK inhibition, PC-12 (Rat Neuronal), pre-incubation 1 hour, 3/26/11 (SSM58)",[5],0.65 nM
same,"EC50, pERK inhibition, huTrkA (CHO), pre-incubation 1 hour, 3/26/11 (SSM58)",[5],0.79 nM
same,"EC50, pERK inhibition, huTrkA (CHO), pre-incubation 1 hour, 3/31/11 (SSM58)",[5],0.86 nM
same,"EC50, pERK inhibition, huTrkA (CHO), pre-incubation 6 hour, 3/31/11 (SSM58)",[5],0.72 nM
same,"Fold Potency Difference versus RN911, pERK inhibition, PC-12 (Rat Neuronal), pre-incubation 1 hour, 2/23/11 (SSM58)",[5],1.6 fold
same,"Fold Potency Difference versus RN911, pERK inhibition, PC-12 (Rat Neuronal), pre-incubation 1 hour, 3/26/11 (SSM58)",[5],1.4 fold
same,"Fold Potency Difference versus RN911, pERK inhibition, huTrkA (CHO), pre-incubation 1 hour, 3/26/11 (SSM58)",[5],1.7 fold
same,"Fold Potency Difference versus RN911, pERK inhibition, huTrkA (CHO), pre-incubation 1 hour, 3/31/11 (SSM58)",[5],1.4 fold
same,"Fold Potency Difference versus RN911, pERK inhibition, huTrkA (CHO), pre-incubation 6 hour, 3/31/11 (SSM58)",[5],1.3 fold
same,Ki,[6],4.2 nM
B11,Kd,[1],41.4 nM
same,koff,[1],0.000167 s⁻¹
same,kon,[1],4040 M⁻¹ s⁻¹
B12,Kd,[1],311 nM
same,koff,[1],0.00241 s⁻¹
same,kon,[1],7750 M⁻¹ s⁻¹
B13,Kd,[1],14.2 nM
same,koff,[1],0.000114 s⁻¹
same,kon,[1],8080 M⁻¹ s⁻¹
B14,Kd,[4],0.237 nM
same,Kd,[7],0.81 nM
